From patent US20140186365A1

Assays:
[1] = target: Mouse Serum Albumin (mouse) (UniProt P07724); experiment: BLI (Octet Red), MSA on sensor tips, VH domain in solution, 1:1 fit
[2] = target: Human Serum Albumin (human) (UniProt P02768); experiment: BLI (Octet Red), HSA on sensor tips, VH domain in solution, 1:1 fit
UniProt P02768, sequence (P02768 25-609 limits assumed): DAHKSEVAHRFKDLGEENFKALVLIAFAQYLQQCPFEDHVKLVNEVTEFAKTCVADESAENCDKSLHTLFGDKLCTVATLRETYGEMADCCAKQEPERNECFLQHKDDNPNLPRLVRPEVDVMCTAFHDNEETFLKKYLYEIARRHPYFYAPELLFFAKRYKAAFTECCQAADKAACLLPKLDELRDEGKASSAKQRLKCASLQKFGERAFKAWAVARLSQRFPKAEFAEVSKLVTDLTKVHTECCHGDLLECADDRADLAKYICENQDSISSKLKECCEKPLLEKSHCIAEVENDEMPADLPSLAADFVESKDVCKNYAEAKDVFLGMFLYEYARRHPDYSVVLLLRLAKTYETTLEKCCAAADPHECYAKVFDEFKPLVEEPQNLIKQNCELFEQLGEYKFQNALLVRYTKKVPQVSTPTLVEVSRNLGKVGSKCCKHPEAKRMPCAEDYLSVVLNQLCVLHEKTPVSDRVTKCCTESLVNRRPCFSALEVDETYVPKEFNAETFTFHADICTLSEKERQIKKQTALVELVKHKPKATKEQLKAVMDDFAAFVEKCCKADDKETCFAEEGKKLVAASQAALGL

UniProt P07724, sequence (P07724 25-608 limits assumed): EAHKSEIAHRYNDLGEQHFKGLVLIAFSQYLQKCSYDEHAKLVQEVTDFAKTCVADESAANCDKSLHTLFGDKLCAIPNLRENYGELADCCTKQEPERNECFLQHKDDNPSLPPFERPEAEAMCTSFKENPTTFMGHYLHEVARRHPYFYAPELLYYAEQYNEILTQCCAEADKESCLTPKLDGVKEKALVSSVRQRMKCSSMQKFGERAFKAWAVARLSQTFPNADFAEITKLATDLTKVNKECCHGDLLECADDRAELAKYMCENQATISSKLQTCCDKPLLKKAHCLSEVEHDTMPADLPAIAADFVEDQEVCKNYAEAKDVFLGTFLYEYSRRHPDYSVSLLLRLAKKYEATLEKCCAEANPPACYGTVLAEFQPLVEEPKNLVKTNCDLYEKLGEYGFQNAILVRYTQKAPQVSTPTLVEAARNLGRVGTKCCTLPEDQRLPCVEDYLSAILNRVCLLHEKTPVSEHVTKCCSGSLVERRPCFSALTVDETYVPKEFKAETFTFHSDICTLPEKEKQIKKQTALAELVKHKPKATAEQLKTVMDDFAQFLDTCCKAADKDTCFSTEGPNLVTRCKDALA

Row | Binder | Kd [1] [nM] | koff [1] [s⁻¹] | kon [1] [M⁻¹ s⁻¹] | Kd [2] [nM] | koff [2] [s⁻¹] | kon [2] [M⁻¹ s⁻¹]
1 | VH-3C2 (protein) VH: QVQLQQSGPGLVKPSQTLSLTCAISGDSVSSKSAAWNWIRQSPSRGLEWLGRTYYRSKWYNDYVVSLRSRITVSPDTSKNQFSLQLNSVTPEDTAMYYCARTRGHIDLWGRGTLVTVSSSASGAGS | 31.8 | 0.000218 | 6870 | 23.8 | 0.000155 | 6500
2 | VH-3E11 (protein) VH: QVQLQQSGPGLVKPSQTLSLTCAISGDSVSGNSAAWNWIRQSPSRGLEWLGRTYYRSKWYIGYAASLQSRLAINADTSKNQLSLRLSSVTPEDTAVYYCVGRHYSGHSGAFDTWGHGTMVTVSSSASGAGS | 39.3 | 0.000226 | 5750 | 23.6 | 0.000133 | 5630
3 | VH-3B11 (protein) VH: EVQLVQSGAEVKKPGESLKISCKGSGYSFTSYWIGWVRQMPGKGLEWMGIVYPGDSDTRYSPSFQGQVTISAGKSISTAYLQWSSLKASDTAMYYCARPSMGATTWISAFDIWGQGTTVTVSSSASGAGS | 9.61 | 7.88e-05 | 8200 | 18.1 | 0.000126 | 6980

Continued by falling Kd [1], values first:

Row | Kd [1] [nM] | koff [1] [s⁻¹] | kon [1] [M⁻¹ s⁻¹] | Kd [2] [nM] | koff [2] [s⁻¹] | kon [2] [M⁻¹ s⁻¹] | Binder
4 | 12.6 | 0.000105 | 8340 | 13.3 | 0.000141 | 10600 | VH-4D6 (protein) VH: EVQLVQSGAEVKKPGESLKISCKGSGYSFTSYWIGWVRQMPGKGLEWMGIIYPGDSDTRYSPSFQGQVTISADKSISTAYLQWSSLKASDTAMYYCARLDCSGGSCYYYYYGMDVWGQGTTVTVSSSASGAGS
5 | 6.32 | 5.42e-05 | 8570 | 18.2 | 9.58e-05 | 5260 | VH-1C5 (protein) VH: QVQLQQSGPGLVKPSQTLSLTCAISGDSVSSNSAAWNWIRQSPSRGLEWLGRTYYRSKWYNDYAVSVKSRITINPDTSKNQFSLQLNSVTPEDTAVYYCARTPSTGTLDCWGRGTLVTVSSSASGAGS
